Reference: IntAct's records for PubMed 22578008

B1: E3 ubiquitin-protein ligase NHLRC1 (Homo sapiens), Q6VVB1 (parent)
chain: MAAEASESGPALHELMREAEISLLECKVCFEKFGHRQQRRPRNLSCGHVVCLACVAALAHPRTLALECPFCRRACRGCDTSDCLPVLHLIELLGSALRQSPAAHRAAPSAPGALTCHHTFGGWGTLVNPTGLALCPKTGRVVVVHDGRRRVKIFDSGGGCAHQFGEKGDAAQDIRYPVDVTITNDCHVVVTDAGDRSIKVFDFFGQIKLVIGGQFSLPWGVETTPQNGIVVTDAEAGSLHLLDVDFAEGVLRRTERLQAHLCNPRGVAVSWLTGAIAVLEHPLALGTGVCSTRVKVFSSSMQLVGQVDTFGLSLYFPSKITASAVTFDHQGNVIVADTSGPAILCLGKPEEFPVPKPMVTHGLSHPVALTFTKENSLLVLDTASHSIKVYKVDWG
partner: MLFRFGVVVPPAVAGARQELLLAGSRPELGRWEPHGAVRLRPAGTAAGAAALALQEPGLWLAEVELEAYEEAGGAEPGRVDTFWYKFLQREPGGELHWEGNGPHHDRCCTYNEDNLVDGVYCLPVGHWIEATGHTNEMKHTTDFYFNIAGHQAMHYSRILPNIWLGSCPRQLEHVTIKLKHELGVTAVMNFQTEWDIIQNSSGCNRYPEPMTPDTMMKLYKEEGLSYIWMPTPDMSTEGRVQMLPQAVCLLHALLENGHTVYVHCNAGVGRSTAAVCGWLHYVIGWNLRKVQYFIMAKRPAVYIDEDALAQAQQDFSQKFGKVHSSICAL
B2: Laforin (Mus musculus), Q9WUA5 (parent)
chain: B1 partner
partner: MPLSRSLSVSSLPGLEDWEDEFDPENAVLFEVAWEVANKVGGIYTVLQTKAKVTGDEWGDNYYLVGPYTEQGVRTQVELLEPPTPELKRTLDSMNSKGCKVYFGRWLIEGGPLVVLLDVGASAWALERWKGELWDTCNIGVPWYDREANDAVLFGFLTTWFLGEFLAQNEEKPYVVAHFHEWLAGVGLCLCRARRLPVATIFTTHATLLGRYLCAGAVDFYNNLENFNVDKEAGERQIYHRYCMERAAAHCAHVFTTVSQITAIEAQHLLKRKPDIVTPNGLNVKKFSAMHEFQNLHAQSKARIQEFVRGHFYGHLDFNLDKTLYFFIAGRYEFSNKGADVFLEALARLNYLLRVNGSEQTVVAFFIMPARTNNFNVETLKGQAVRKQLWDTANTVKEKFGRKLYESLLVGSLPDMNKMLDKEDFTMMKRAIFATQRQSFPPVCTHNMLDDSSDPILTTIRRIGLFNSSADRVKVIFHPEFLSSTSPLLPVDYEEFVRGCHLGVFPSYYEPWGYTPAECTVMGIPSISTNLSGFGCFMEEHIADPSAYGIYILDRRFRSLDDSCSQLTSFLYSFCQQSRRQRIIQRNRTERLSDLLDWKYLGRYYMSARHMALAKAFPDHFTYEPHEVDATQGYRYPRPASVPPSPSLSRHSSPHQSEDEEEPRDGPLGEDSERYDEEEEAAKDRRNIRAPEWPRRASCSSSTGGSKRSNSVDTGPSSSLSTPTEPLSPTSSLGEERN

Variants of: B1
Settings: with epm2a_mouse Epm2a

Row | Variant | effect of a mutation on the interaction
1 | C26S | decreasing interaction

Variants of: B1
Settings: with epm2a_mouse Epm2a
Remark: another data set of the same source

Row | Variant | effect of a mutation on the interaction
2 | L87P | decreasing interaction

Variants of: B1
Settings: with epm2a_mouse Epm2a
Remark: another data set of the same source

Row | Variant | effect of a mutation on the interaction
3 | D146N | disrupting interaction

Variants of: B1
Settings: with epm2a_mouse Epm2a
Remark: another data set of the same source

Row | Variant | effect of a mutation on the interaction
4 | I198N | disrupting interaction

Variants of: B1
Settings: with epm2a_mouse Epm2a
Remark: another data set of the same source

Row | Variant | effect of a mutation on the interaction
5 | D233A | disrupting interaction

Variants of: B1
Settings: with epm2a_mouse Epm2a
Remark: another data set of the same source

Row | Variant | effect of a mutation on the interaction
6 | P264H | disrupting interaction

Variants of: B1
Settings: with epm2a_mouse Epm2a
Remark: another data set of the same source

Row | Variant | effect of a mutation on the interaction
7 | E280K | disrupting interaction

Variants of: B1
Settings: with epm2a_mouse Epm2a
Remark: another data set of the same source

Row | Variant | effect of a mutation on the interaction
8 | Q302P | decreasing interaction

Variants of: B2
Settings: with gys1_mouse Gys1, Q9Z1E4

Row | Variant | effect of a mutation on the interaction
9 | C265S | increasing interaction
